In PMC6639331 one finds stoichiometry N data, which are given here for two substances.

The target in assay [1] is NOT1:NOT2:NOT3:CAF40 subcomplex (full-length subunits) (human) (UniProt A5YKK6). Kind of assay: SEC-MALS; reconstituted CCR4-NOT FULL, 40 ul at 0.9 mg/ml, Superose 6 5/150 in 10 mM HEPES/NaOH pH 7.5, 200 mM NaCl; SDS-PAGE with Coomassie staining of the complex.
The target in assay [2] is CCR4a, full length (human) (human) (UniProt Q9ULM6). The experiment in a line: co-purification (metal affinity, SEC, anion exchange); CCR4a and CAF1 co-expressed in E. coli; nickel IMAC, tags cleaved by TEV, Superdex 200 in 10 mM HEPES/NaOH pH 7.5, 300 mM NaCl, 2 mM DTT, then Source 15Q.
CCR4a, full length (human) (human), sequence (Q9ULM6 whole entry): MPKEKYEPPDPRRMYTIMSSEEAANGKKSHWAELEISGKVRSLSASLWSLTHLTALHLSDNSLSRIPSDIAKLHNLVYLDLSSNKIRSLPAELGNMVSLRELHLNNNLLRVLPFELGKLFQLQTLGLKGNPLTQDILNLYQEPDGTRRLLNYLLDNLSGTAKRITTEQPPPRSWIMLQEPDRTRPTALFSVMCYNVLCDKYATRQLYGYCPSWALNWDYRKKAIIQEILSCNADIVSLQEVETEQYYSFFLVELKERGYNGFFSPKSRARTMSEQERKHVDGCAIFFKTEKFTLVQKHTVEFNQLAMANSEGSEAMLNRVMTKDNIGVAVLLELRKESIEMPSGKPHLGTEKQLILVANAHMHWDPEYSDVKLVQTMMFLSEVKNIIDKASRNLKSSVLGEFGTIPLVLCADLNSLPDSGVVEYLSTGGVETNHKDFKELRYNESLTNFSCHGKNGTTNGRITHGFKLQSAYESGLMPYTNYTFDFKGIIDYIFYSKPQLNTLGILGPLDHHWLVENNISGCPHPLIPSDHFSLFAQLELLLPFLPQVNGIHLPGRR

CAF1, full length (human), sequence (Q9UIV1 whole entry): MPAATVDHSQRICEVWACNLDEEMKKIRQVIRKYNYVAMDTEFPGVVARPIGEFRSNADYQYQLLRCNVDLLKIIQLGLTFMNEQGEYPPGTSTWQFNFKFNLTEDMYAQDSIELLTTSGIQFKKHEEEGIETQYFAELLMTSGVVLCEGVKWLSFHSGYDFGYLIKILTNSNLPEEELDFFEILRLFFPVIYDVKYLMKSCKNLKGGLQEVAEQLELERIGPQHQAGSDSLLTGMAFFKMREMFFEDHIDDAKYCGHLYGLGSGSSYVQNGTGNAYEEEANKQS
NOT1:NOT2:NOT3:CAF40 subcomplex (full-length subunits) (human), sequence (A5YKK6 whole entry, chain 1 of 4): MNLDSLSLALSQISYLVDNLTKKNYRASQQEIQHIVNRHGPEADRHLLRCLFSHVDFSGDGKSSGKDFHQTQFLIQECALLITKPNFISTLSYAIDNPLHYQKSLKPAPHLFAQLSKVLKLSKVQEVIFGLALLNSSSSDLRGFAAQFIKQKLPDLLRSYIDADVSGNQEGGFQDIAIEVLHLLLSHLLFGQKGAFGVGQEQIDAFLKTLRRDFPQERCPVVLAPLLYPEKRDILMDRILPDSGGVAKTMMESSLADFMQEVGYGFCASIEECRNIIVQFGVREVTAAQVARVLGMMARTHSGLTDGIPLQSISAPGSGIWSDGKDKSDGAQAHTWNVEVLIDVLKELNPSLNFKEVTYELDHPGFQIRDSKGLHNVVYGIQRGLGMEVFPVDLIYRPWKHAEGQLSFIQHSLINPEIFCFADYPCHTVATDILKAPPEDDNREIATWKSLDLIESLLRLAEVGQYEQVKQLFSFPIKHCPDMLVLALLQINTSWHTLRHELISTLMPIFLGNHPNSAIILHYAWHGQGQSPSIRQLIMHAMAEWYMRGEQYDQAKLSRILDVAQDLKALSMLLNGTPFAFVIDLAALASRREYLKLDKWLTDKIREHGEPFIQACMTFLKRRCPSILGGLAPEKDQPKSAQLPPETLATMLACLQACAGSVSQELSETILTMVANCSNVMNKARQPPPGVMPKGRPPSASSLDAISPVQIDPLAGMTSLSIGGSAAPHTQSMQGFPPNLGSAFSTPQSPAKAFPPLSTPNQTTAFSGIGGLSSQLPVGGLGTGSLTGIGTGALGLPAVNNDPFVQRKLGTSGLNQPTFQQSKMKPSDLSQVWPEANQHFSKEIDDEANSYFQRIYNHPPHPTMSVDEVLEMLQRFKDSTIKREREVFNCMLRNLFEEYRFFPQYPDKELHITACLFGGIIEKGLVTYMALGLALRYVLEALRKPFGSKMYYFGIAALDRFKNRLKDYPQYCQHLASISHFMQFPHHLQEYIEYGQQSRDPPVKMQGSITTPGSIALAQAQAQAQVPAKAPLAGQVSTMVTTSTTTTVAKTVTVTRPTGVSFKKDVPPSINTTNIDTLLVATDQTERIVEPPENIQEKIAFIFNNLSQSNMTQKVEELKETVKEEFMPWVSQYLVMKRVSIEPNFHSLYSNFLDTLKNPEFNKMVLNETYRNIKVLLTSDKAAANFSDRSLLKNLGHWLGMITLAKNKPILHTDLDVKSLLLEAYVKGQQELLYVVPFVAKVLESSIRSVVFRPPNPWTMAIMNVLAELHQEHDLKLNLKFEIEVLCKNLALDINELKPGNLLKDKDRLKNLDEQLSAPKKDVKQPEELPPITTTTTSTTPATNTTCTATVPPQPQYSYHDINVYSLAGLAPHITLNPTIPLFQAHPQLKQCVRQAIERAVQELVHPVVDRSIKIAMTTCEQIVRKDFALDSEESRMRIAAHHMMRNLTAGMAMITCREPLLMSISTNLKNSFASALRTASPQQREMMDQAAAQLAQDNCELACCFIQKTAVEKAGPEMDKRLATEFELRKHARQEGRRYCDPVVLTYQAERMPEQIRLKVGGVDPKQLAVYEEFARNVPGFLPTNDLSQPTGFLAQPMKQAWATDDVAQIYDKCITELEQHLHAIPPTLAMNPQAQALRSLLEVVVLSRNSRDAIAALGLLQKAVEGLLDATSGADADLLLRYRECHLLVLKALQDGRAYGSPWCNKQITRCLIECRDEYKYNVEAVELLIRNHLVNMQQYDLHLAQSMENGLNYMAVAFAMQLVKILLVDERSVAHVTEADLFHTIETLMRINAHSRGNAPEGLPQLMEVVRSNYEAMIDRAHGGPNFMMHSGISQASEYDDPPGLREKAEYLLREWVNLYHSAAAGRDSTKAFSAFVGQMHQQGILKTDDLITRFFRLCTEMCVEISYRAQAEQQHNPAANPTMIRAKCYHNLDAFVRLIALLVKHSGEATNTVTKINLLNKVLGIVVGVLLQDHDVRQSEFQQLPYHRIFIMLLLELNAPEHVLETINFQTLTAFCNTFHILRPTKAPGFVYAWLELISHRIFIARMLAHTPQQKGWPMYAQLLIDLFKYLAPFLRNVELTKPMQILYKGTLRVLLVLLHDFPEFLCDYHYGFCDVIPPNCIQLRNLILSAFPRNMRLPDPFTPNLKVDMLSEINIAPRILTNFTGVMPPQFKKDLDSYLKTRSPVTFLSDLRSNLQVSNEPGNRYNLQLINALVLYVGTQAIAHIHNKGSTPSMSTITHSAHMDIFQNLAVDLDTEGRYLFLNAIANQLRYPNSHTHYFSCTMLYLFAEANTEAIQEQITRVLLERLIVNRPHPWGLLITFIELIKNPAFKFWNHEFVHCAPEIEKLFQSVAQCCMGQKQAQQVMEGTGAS
NOT1:NOT2:NOT3:CAF40 subcomplex (full-length subunits) (human), sequence (Q9NZN8 whole entry, chain 2 of 4, further chain): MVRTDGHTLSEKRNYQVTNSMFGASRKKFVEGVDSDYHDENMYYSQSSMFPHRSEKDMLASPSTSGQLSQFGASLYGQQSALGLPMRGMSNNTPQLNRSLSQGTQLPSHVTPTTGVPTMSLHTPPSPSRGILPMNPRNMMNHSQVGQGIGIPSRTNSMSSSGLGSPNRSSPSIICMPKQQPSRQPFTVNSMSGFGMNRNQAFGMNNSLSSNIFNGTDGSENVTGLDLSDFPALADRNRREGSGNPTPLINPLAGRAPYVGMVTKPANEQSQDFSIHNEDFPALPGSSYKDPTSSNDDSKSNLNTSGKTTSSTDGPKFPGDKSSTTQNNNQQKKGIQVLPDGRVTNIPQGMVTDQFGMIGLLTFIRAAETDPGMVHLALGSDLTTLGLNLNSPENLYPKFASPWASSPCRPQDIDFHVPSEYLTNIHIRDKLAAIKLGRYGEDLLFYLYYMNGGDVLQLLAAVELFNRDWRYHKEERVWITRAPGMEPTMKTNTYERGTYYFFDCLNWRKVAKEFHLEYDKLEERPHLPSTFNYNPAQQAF
NOT1:NOT2:NOT3:CAF40 subcomplex (full-length subunits) (human), sequence (O75175 whole entry, chain 3 of 4, further chain): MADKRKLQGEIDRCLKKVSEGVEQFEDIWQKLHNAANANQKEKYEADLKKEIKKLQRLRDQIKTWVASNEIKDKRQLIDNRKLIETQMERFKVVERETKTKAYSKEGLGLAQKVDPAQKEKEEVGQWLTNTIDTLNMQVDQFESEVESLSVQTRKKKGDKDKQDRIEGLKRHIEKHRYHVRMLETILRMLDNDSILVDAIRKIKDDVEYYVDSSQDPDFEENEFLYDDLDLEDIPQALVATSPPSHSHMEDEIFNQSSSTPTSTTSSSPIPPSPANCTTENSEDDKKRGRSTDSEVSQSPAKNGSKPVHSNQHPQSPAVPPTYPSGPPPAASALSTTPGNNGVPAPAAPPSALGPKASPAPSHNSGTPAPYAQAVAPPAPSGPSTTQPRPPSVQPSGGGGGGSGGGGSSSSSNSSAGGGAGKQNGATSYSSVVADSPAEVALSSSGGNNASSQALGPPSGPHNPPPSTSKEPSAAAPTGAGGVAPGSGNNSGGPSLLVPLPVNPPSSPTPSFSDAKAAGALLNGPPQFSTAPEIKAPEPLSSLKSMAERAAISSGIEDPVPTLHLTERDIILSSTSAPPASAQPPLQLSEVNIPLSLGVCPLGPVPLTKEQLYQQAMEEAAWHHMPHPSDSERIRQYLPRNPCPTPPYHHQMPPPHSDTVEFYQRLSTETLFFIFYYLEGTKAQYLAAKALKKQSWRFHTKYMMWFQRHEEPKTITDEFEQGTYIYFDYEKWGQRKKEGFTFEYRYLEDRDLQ
NOT1:NOT2:NOT3:CAF40 subcomplex (full-length subunits) (human), sequence (Q92600 whole entry, chain 4 of 4, further chain): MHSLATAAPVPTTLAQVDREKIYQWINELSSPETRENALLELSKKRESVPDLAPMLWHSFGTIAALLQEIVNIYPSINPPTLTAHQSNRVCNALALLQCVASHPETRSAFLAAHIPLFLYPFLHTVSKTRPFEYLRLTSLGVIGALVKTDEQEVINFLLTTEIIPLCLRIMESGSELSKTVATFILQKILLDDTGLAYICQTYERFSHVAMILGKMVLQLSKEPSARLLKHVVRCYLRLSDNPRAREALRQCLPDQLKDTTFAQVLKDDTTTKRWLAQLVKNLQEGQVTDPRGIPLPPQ

For the substance “CCR4a:CAF1 exonuclease heterodimer (wild type) (from UniProt Q9ULM6 1-557; Q9UIV1 1-285) (complex)”, the stoichiometry N in assay [1] was determined as 1.

In the case of “CAF1, full length (human) (from UniProt Q9UIV1 1-285) (enzyme)”, the stoichiometry N in assay [2] was 1.
